This note sets out measurements from patent publication US20260158147A1 (published 2026).

As a reminder, the EC50 is the concentration giving half of the maximal effect.

The target of this assay is Pre-formed aBeta fibrils (UniProt P05067 672-713). Kind of assay: ELISA. For orientation: ELISA stands for enzyme-linked immunosorbent assay.

B1: gantenerumab (antibody, V domains shown)
VH: QVELVESGGGLVQPGGSLRLSCAASGFTFSSYAMSWVRQAPGKGLEWVSAINASGTRTYYADSVKGRFTISRDNSKNTLYLQMNSLRAEDTAVYYCARGKGNTHKPYGYVRYFDVWGQGTLVTVSS
VL: DIVLTQSPATLSLSPGERATLSCRASQSVSSSYLAWYQQKPGQAPRLLIYGASSRATGVPARFSGSGSGTDFTLTISSLEPEDFATYYCLQIYNMPITFGQGTKVEIK
B1 had an EC50 of 0.702 nM.
